# Results published in article PMC9309400.
# How the values were obtained:
# [1] = target: Family 2B encapsulin from S. griseus, expressed in E. coli (S. griseus); test: cryo-EM 2D class averages
# [2] = target: Family 2B encapsulin from S. griseus (Q54255), expressed in S. coelicolor (S. griseus); test: cryo-EM 2D class averages
percent of encapsulins with apparent cargo [1],percent of particles with cargo [2],Substance
34%,–,"cargo protein of the Family 2B encapsulin from S. griseus, expressed in E. coli (natural protein)"
–,96%,"cargo protein of the encapsulin (A0A2X2LWM5), expressed in S. coelicolor (natural protein)"
